T1: human CD22 domain5-7-His (human, UniProt P20273 414-687)
T1 construct: also called hCD22 domain5-7-His; not shown: His tag
T1 sequence: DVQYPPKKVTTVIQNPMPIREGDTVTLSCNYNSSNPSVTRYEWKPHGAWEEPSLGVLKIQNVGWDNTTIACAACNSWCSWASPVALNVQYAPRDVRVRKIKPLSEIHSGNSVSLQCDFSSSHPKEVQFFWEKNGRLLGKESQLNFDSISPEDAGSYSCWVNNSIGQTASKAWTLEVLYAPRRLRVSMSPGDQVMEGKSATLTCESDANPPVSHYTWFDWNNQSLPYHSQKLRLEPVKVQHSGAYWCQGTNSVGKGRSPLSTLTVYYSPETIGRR

T2: human CD22-ECD-His protein (human, UniProt P20273 20-687)
T2 construct: Recombinant, from HEK293E cells; also called hCD22-ECD-His; human CD22-His protein; not shown: His tag
T2 sequence: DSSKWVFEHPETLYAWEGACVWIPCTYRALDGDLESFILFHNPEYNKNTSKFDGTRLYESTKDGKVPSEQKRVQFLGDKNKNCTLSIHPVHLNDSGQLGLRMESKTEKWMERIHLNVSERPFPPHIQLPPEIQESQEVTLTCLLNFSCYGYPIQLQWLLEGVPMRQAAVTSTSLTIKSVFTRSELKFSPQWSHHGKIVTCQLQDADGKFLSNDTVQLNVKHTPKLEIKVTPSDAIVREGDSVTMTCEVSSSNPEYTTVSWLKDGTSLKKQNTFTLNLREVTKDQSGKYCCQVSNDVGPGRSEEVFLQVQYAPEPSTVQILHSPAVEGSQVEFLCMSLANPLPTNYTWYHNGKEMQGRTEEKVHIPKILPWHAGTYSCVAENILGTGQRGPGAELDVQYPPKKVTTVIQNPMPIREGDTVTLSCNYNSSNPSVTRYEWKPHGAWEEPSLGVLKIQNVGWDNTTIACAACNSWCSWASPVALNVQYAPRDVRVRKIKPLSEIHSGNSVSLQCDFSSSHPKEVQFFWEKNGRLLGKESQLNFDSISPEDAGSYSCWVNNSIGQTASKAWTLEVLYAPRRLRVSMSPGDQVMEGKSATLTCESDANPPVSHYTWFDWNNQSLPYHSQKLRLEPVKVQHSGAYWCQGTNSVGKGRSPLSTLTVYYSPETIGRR

T3: rhesus monkey CD22-ECD-His protein (rhesus monkey, UniProt H9G1X2 18-686)
T3 construct: extracellular domain; also called monkey CD22 protein
T3 sequence: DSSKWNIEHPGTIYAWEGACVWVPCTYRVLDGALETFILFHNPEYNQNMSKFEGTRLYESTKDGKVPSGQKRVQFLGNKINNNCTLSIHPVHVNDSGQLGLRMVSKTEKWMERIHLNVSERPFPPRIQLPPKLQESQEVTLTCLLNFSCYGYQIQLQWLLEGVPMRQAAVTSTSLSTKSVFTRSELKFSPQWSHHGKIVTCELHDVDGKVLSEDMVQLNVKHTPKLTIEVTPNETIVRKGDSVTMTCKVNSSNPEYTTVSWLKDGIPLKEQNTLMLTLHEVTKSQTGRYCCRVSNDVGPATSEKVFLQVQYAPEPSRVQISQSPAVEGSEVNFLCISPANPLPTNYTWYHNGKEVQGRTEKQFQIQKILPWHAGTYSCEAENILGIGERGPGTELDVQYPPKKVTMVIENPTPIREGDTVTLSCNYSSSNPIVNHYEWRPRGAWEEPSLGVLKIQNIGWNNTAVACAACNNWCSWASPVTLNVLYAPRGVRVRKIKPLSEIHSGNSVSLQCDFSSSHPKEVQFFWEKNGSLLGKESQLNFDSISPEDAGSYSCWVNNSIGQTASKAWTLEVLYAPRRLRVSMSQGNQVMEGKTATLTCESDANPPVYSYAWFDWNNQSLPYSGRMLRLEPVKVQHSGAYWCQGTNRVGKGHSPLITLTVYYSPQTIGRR

B1: F2.173.9 (antibody, human IgG1, lambda, V domains shown)
VH: EVQLVESGGDLVKPGESLKLSCEASGFTFSNYAMSWVRQTPDRRLEWVATISSIGSFTYYSDSVKGRFTISRDNVKSTLHLQMNNLKSGDTAIYFCARLGVYFDSWGQGTTLTVSS
VL: QLVLTQSSSASFSLGASAKLTCTLSSQHSTYTIEWYQQQPHKPPKFVMEIKKDGSHYTGDGIPDRFSGSSSGADRYLSISNIQPEDETIYICGVSDMIKDQFVYVFGGGTKVTVLG
notes: Chimeric IgG1 lambda
B2: HA22-hIgG1 (antibody, V domains shown)
VH: EVQLVESGGGLVKPGGSLKLSCAASGFAFSIYDMSWVRQTPEKCLEWVAYISSGGGTTYYPDTVKGRFTISRDNAKNTLYLQMSSLKSEDTAMYYCARHSGYGTHWGVLFAYWGQGTLVTVSA
VL: DIQMTQTTSSLSASLGDRVTISCRASQDISNYLNWYQQKPDGTVKLLIYYTSILHSGVPSRFSGSGSGTDYSLTISNLEQEDFATYFCQQGNTLPWTFGCGTKLEIKR
B3: F1.172.13 (antibody, human IgG1, kappa, V domains shown)
VH: QVTLKESGPGILQSSQTLSLTCSFSGFSLSTSGMGVSWIRQPSGKGLEWLAHIYWDDDKRYNPSLKSRLTISKDTSRNQVFLKITSVDTADTATYYCARAPPPNWDEYYFDYWGQGTTLTVSS
VL: DIQMTQSPASLSASVGETVTITCRASGNIHNSLAWYQQKQGKSPQLLVHNAKTLADGVPSRFSGSGSGTQYSLKINSLQPEDFGSYYCQHFWSTPPFGGGTKLEIKR
notes: Chimeric IgG1 kappa
B4: F2.99.1 (antibody, human IgG1, lambda, V domains shown)
VH: QVTLKESGPGILQPSQTLSLTCSFSGFSLSTFPMGVGWIRQPSGKGLEWLAHIWWDDDEYYNPVLKSRLTISKDTSKKQVYLRIANVDTVDTATYYCTRANWDRWYFDVWGTGTTVTVSS
VL: QLVLTQSSSASFSLGASAKLTCTLSRQHSAYTIEWYQQQPLKPPKYVMEVKKDGSHSTGDGIPDRFSGSSSGADRYLSISNIQPEDEAIYICGVGDTIKEHFVFGGGTKVTVLG
notes: Chimeric IgG1 lambda
B5: F2.205.9 (antibody, human IgG1, lambda, V domains shown)
VH: QVTLKESGPGILQPSQTLSLTCSFSGFSLSTSGMGVGWIRQPSGKGLEWLAHIWWDDDEYYNPALKSRLTISKDTSKNQVFLKIANVDTADTATYYCARISIPYGYYDWFFDVWGTGTTVTVSA
VL: QAVVTQESALTTSPGETVTLTCRSSTGAVTTRNYANWVQEKPDHLFTGLIGGTNNRAPGVPARFSGSLIGDKAALTITGAQTEDEAIYFCALWYSNHFIFGSGTKVTVLG
notes: Chimeric IgG1 lambda

How the values were obtained:
human CD22 domain5-7-His = biological target: T1, human CD22 domain5-7-His; assay: ELISA, plate coated with human CD22 domain5-7-His
[1] = biological target: T2, human CD22-ECD-His protein; assay: SPR (Biacore), antibody captured on Protein A chip, CD22-ECD-His in solution
Protocol: Sample buffer and running buffer were HBS-EP+(10 mM HEPES, 150 mM NaCl, 3 mM EDTA, 0.05% surfactant P20) (GE Healthcare; BR-1006-69). The flow-through cell was set to 25° C. The sample block was set to 16° C. Both were pretreated with the running buffer. In each cycle, the antibody to be tested was first captured with a Protein A chip, then a single concentration of CD22 antigen protein was injected. The binding and dissociation process of the antibody and the antigen protein was recorded, and finally Glycine pH 1.5 (GE Healthcare; BR-1003-54) was used to complete chip regeneration. Binding was measured by injecting different concentrations of recombinant human CD22-ECD His protein in solution for 240 s with a flow rate of 30 μL/min. The concentration started from 200 nM (see the detailed results for the actual concentration in the test) and was diluted at 1:1, making a total of 5 concentrations. The dissociation phase was monitored for up to 600 s and was triggered by switching from sample solution to running buffer. The surface was regenerated by washing with a 10 mM of glycine solution (pH 1.5) for 30 s at a flow rate of 30 μL/min. Bulk refractive index difference was corrected by subtracting the response obtained from the goat anti-human Fc surface. Blank injection was also subtracted (=double reference). For calculation of apparent KD and other kinetic parameters, Langmuir 1:1 model was used.

[2] = biological target: T3, rhesus monkey CD22-ECD-His protein; assay: SPR (Biacore), antibody captured on Protein A chip, rhesus CD22 in solution

Binder | binding result (human CD22 domain5-7-His) | Kd [1] | koff [1] | kon [1] | Kd [2] | koff [2] | kon [2]
B1 | no binding | 4.74 nM | 0.000232 s⁻¹ | 49000 M⁻¹ s⁻¹ | 46.7 nM | 0.000883 s⁻¹ | 18900 M⁻¹ s⁻¹
B2 | no binding | 1.33 nM | 8.96e-05 s⁻¹ | 67400 M⁻¹ s⁻¹ | 3.41 nM | 0.000234 s⁻¹ | 68600 M⁻¹ s⁻¹
B3 | no binding | 17.6 nM | 0.00539 s⁻¹ | 306000 M⁻¹ s⁻¹ | 6.9 nM | 0.00138 s⁻¹ | 200000 M⁻¹ s⁻¹
B4 | no binding | 1.55 nM | 0.000162 s⁻¹ | 105000 M⁻¹ s⁻¹ | 14.5 nM | 0.000545 s⁻¹ | 37600 M⁻¹ s⁻¹
B5 | no binding | 1.57 nM | 0.000386 s⁻¹ | 246000 M⁻¹ s⁻¹ | 10.3 nM | 0.0014 s⁻¹ | 135000 M⁻¹ s⁻¹

Source: patent US20240084003A1 (SIMCERE ZAIMING PHARMACEUTICAL, published 2024)
